Measurements from article PMC6019700 (Cell Reports, 2018).

How the values were obtained:
[1] = molecular target: PC64M4C054 full-length Env (early FL) (HIV-1 clade A, donor PC64, clone …, strain, N-linked glycans | N-linked glycans); assay: cell-based or functional assay
[2] = molecular target: PC64M18C043 full-length Env (late FL), clade A HIV-1 Env clone no. 43 from the 18 months post-infection … (HIV-1 clade A, donor PC64, clone …, strain, N-linked glycans (N130, N156, N160 and others) | N-linked glycans (N611, N616, N637 and others)); assay: cell-based or functional assay

B1: PCT64-13C Fab (early Fab), PCT64 lineage antibody isolated from month 13 (Fab, V domains shown)
VH: EVQLVESGGGLVKPGGSLRLSCAASGFTFTNAWLDWVRQAPGKGLEWVGRIKSKTDGGTTDHAAPVKGRFTISRDDSKNTVYLQMNSLKIEDTAVYYCTTGVETYDFWSGYDDHYYDYYFKDVWGKGTTVTVSS
VL: EIVLTQSPGTLSLSPGERATLSCRASQSVSNNYLAWYQQKPGQAPRLLIYGASSRATGIPDRFSGSGSGTDFTLTISRLEPEDFAVYYCQQSARSFTFGPGTKVDIK
[1]
  neutralisation of early M4 virus by the antibody PCT64-13C, IC50: 0.0229 µg/mL

B2: PCT64-35S Fab (late Fab), PCT64 lineage antibody isolated from the month 35 sample (Fab, V domains shown)
VH: EVQLVESGGGLVKPGGSLRLACVGSEFTFSEAWMTWVRQAPGKGLEWVGHMRPTTEGGAKDYAAAVRGRFTIARDDSKSTLYLQMNSLKIEDTGVYYCMTGVERGDFWSDDYSQHYNTYLIDVWGKGTTVTVSS
VL: EIVLTQSPGTLSLSPGDRATLSCRATQSVGGDYFAWYQQRPGQSPRLLIYGTSRRAAGIPDRFSGSGSGTDFTLTIDRLEPEDFAVYYCRQYETSFTFGPGTKVDIK
[2]
  neutralisation of late M18 virus by the antibody PCT64-35S, IC50: 9 µg/mL

B3: PGT151 Fab (Fab, V domains shown)
VH: RVQLVESGGGVVQPGKSVRLSCVVSDFPFSKYPMYWVRQAPGKGLEWVAAISGDAWHVVYSNSVQGRFLVSRDNVKNTLYLEMNSLKIEDTAVYRCARMFQESGPPRLDRWSGRNYYYYSGMDVWGQGTTVTVSS
VL: DIVMTQTPLSLSVTPGQPASISCKSSESLRQSNGKTSLYWYRQKPGQSPQLLVFEVSNRFSGVSDRFVGSGSGTDFTLRISRVEAEDVGFYYCMQSKDFPLTFGGGTKVDLK
[2]
  neutralisation of late Env pseudovirus, IC50: 0.0013 µg/mL
